Where a chain is given by its changes, count along the chain named.
B1: SEQ ID NO: 48 (ssRNA)
RNA: GGGAGAACUUCGACCAGAAGUUGGCACAUCCUGCUGCGGAGUUUCCGUCUCGGUGGCUGUUAUGUGCGCAUACAUGGAUCCUC
modifications: 2'-F C/U, dA, 2'-OH G
B2: SEQ ID NO: 49 (ssRNA)
RNA: B1 RNA with G23U, G39U, C51A, G52C
modifications: 2'-F C/U, dA, 2'-OH G
B3: SEQ ID NO: 50 (ssRNA)
RNA: B1 RNA with U21C, C34U, G39U, C51A, G52C, G56A
modifications: 2'-F C/U, dA, 2'-OH G
B4: SEQ ID NO: 51 (ssRNA)
RNA: B1 RNA with U29C, G36A
modifications: 2'-F C/U, dA, 2'-OH G
B5: SEQ ID NO: 52 (ssRNA)
RNA: B1 RNA with G38A, G39U, C51U, G52U
modifications: 2'-F C/U, dA, 2'-OH G
B6: SEQ ID NO: 53 (ssRNA)
RNA: B1 RNA with G23U, G39C, C51A, G52C
modifications: 2'-F C/U, dA, 2'-OH G
B7: SEQ ID NO: 54 (ssRNA)
RNA: B1 RNA with C34A, G39U, C51G, G52C, G56U
modifications: 2'-F C/U, dA, 2'-OH G
B8: SEQ ID NO: 55 (ssRNA)
RNA: B1 RNA with C34U, G39U, C51G, G52C
modifications: 2'-F C/U, dA, 2'-OH G
B9: SEQ ID NO: 56 (ssRNA)
RNA: GGGAGAACUUCGACCAGAAGUUGCACAUCCUGCUGUGUAGUUUCCGUCUGCAUGGUUGUUAUGUGCGCAUACAUGGAUCCUC
modifications: 2'-F C/U, dA, 2'-OH G
B10: SEQ ID NO: 57 (ssRNA)
RNA: B1 RNA with U22A, A28G, G38A, G39U, C51G, G52U
modifications: 2'-F C/U, dA, 2'-OH G
B11: SEQ ID NO: 58 (ssRNA)
RNA: B1 RNA with G24A, G39U, C51G, G52C, C57U
modifications: 2'-F C/U, dA, 2'-OH G
B12: SEQ ID NO: 59 (ssRNA)
RNA: B1 RNA with G23U, G39U, G47U, C51G, G52C, C57U
modifications: 2'-F C/U, dA, 2'-OH G
B13: SEQ ID NO: 60 (ssRNA)
RNA: B1 RNA with G38A
modifications: 2'-F C/U, dA, 2'-OH G
B14: SEQ ID NO: 61 (ssRNA)
RNA: B1 RNA with G23A, G39U, C51U, G52C, U54C, C57U
modifications: 2'-F C/U, dA, 2'-OH G
B15: SEQ ID NO: 22 (ssRNA)
RNA: B1 RNA with G39U, C51U, G52C
modifications: 2'-F C/U, dA, 2'-OH G
B16: SEQ ID NO: 23 (ssRNA)
RNA: B9 RNA with U22G, U36C, A52G, U56C
modifications: 2'-F C/U, dA, 2'-OH G
B17: SEQ ID NO: 32 (ssRNA)
RNA: B1 RNA with G47U, C51U, G52C
modifications: 2'-F C/U, dA, 2'-OH G
B18: SEQ ID NO: 33 (ssRNA)
RNA: B1 RNA with U35C, G39U, C46A, G47A, C51U, U58G, G59U, U60G
modifications: 2'-F C/U, dA, 2'-OH G
B19: SEQ ID NO: 34 (ssRNA)
RNA: B1 RNA with U35C, G39U, C51G, G52C
modifications: 2'-F C/U, dA, 2'-OH G
B20: SEQ ID NO: 35 (ssRNA)
RNA: B1 RNA with C34U, G39U, G47U, C51A, G52C
modifications: 2'-F C/U, dA, 2'-OH G
B21: SEQ ID NO: 36 (ssRNA)
RNA: GGGAGAACUUCGACCAGAAGGUACGUUAGUACGUUUGCAUAUGUACAACCUUGCAUACGAUACGUAGGUUAUGUGCGCAUACAUGGAUCCUC
modifications: 2'-F C/U, dA, 2'-OH G
B22: SEQ ID NO: 37 (ssRNA)
RNA: B1 RNA with G36A, G39U, G47U, C51U, G52C
modifications: 2'-F C/U, dA, 2'-OH G
B23: SEQ ID NO: 24 (ssRNA)
RNA: B1 RNA with G39A, G52C
modifications: 2'-F C/U, dA, 2'-OH G
B24: SEQ ID NO: 25 (ssRNA)
RNA: B1 RNA with G39C, C51A, G52C
modifications: 2'-F C/U, dA, 2'-OH G
B25: SEQ ID NO: 26 (ssRNA)
RNA: B9 RNA with U22G, U36C, G50U, A52G, U53C, U56C
modifications: 2'-F C/U, dA, 2'-OH G
B26: SEQ ID NO: 27 (ssRNA)
RNA: B1 RNA with G39C, C51G, G52C
modifications: 2'-F C/U, dA, 2'-OH G
B27: SEQ ID NO: 28 (ssRNA)
RNA: B1 RNA with G39U, G47A, C51G, G52C
modifications: 2'-F C/U, dA, 2'-OH G
B28: SEQ ID NO: 29 (ssRNA)
RNA: GGGAGAACUUCGACCAGAAGUUCACAUCCUGCUGCGAAGUUUCCUUCUUCGUGGCUGUUAUGUGCGCAUACAUGGAUCCUC
modifications: 2'-F C/U, dA, 2'-OH G
B29: SEQ ID NO: 30 (ssRNA)
RNA: GGGAGAACUUCGACCAGAAGUUGGCACAUCCUGCUGCGAAGGUUCCGUCUUCGUGGCUGUACUAUGUGCGCAUACAUGGAUCCUC
modifications: 2'-F C/U, dA, 2'-OH G
B30: SEQ ID NO: 31 (ssRNA)
RNA: B1 RNA with G39C, G47C, C51G, G52C
modifications: 2'-F C/U, dA, 2'-OH G
B31: SEQ ID NO: 89 (ssRNA)
RNA: GGGUCCUGUGGAAGAGUUUCCGUCUCGUCCACUGUUACCC
modifications: 2'-F C/U, dA, 2'-OH G
B32: SEQ ID NO: 101 (ssRNA)
RNA: GGGUCCUGACGUAUAGUUUCCGUCUGUAUGUCUGUUACCC
modifications: 2'-F C/U, dA, 2'-OH G
B33: SEQ ID NO: 102 (ssRNA)
RNA: B31 RNA with U9A, G11C, G27A, C29G, A31U
modifications: 2'-F C/U, dA, 2'-OH G
B34: SEQ ID NO: 82(55) (ssRNA)
RNA: GGGUCCUGGAUAAGAGUUUCCGUCUCGUAUCCUGUUACCC
modifications: as 82(25) except 5' PEG80TS4 instead of idT
B35: SEQ ID NO: 82(1) (ssRNA)
RNA: B34 RNA
modifications: 2'-OMe G (G8,G34 2'-OH), dA, 2'-F C/U; 5',3' idT

Each binder was assayed against T1, NGF (nerve growth factor) (Homo sapiens, UniProt P01138 P01138:122-241) (assay: SPR; more than 40N control). Settings: tags: R&D Systems; chain copies: 2.
T1 sequence (P01138 122-241, one chain of several): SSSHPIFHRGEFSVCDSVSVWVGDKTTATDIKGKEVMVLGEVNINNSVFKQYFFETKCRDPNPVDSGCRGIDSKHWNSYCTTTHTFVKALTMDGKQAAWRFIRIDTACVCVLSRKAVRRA

Binder | binding result
B1 | binds
B2 | binds
B3 | binds
B4 | binds
B5 | binds
B6 | binds
B7 | binds
B8 | binds
B9 | binds
B10 | binds
B11 | binds
B12 | binds
B13 | binds
B14 | binds

Target: T1, NGF (nerve growth factor)
Experiment: SPR; more than 40N control
Settings: tags: R&D Systems; chain copies: 2
Remark: another data set of the same source
Procedure: As the measuring apparatus, BIAcore2000 manufactured by BIAcore was used and, as the sensor chip, CM5 that reacts with an amino group was used. […] For the reaction of an amino group on the protein side and a carboxyl group on the chip side, ethyl-3-carbodiimide hydrochloride and N-hydroxysuccinimide were used. After the reaction, blocking by ethanolamine-HCl was performed. The immobilized amount of NGF was set to 3,000-4,000 RU. An aptamer for analyte was prepared to 0.15 μM-0.5 μM. As a running buffer, solution A was used. Here, solution A is a mixed solution of 145 mM sodium chloride, 5.4 mM potassium chloride, 1.8 mM calcium chloride, 0.8 mM magnesium chloride, 20 mM Tris (pH 7.6), 0.05% Tween 20. As a regeneration solution, a mixed solution of 1M NaCl and 50 mM NaOH was used. NGF was immobilized on FC2, and the results of FC1 were subtracted to give a final sensorgram.
The measurement was as shown in Examples 1 and 2 and the surface plasmon resonance method was used.

Binder | binding result
B15 | binds
B16 | binds
B17 | binds
B18 | binds
B19 | binds
B20 | binds
B21 | binds
B22 | binds
B23 | binds
B24 | binds
B25 | binds
B26 | binds
B27 | binds
B28 | binds
B29 | binds
B30 | binds

These binders were tested against T1, NGF (nerve growth factor) (assay: cell_activity; neurite; TF-1 >1). Settings: tags: R&D Systems; chain copies: 2.

Binder | IC50
B31 | 0.959 nM
B32 | 0.994 nM
B33 | 0.908 nM

These binders were tested against T2, NT-4 (neurotrophin-4) (Homo sapiens, UniProt P34130 P34130:81-210) (assay: cell_activity; TF-1). Settings: tags: R&D Systems; chain copies: 2.
T2 sequence: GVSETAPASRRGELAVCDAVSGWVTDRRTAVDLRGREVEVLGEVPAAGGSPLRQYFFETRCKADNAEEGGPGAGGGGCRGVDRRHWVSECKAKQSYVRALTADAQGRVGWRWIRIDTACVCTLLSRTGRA
Description: Using TF-1 cells, whether NGF aptamer inhibits BDNF, NT-3, NT-4 was examined. Human receptor genes (TrkB, TrkC, p75) for respective neurotrophic factors were introduced into TF-1 cells (ATCC Number: CRL-2003), which is a human erythroleukemic cell line, by using a retrovirus vector to give cells that highly express these receptors stably. TF-1 cells introduced with TrkB and p75 were used for the evaluation of inhibitory activity against BDNF, TF-1 cells introduced with TrkC and p75 were used for the evaluation against NT-3, and TF-1 cells introduced with TrkB alone were used for the evaluation against NT-4. These cells were suspended in an RPMI-1640 medium containing 20% fetal bovine serum, and seeded in a white 96 well flat-bottom plate at 1000 cells (50 μL) per well. Thereto was added a mixed solution 50 μL of human BDNF (final concentration 0.074 nM) or NT-3 (final concentration 0.074 nM) or NT-4 (final concentration 0.071 nM) and the aptamer (final concentration 1 μM-0.01 nM), which had been pre-reacted at room temperature for 30 min in a serum-free RPMI-1640 medium, 3 days later, 100 μL of CellTiter-Glo reagent for CellTiter-Glo Luminescent Cell Viability Assay (manufactured by Promega) was added to each well, chemiluminescence was measured by a microplate reader. With the amount of luminescence per well obtained by the addition of BDNF or NT-3 or NT-4 alone and culture of the cells for 3 days as inhibitory activity 0%, and that of the well obtained by culture for 3 days without addition of BDNF or NT-3 or NT-4 as inhibitory activity 100%, the inhibitory activity of the aptamer was calculated from the amount of luminescence per well obtained by culturing with the addition of BDNF or NT-3 or NT-4 and the aptamer in mixture. When the inhibitory activity was 0 or below, ‘0%’ is indicated. The 50% inhibitory concentration (IC₅₀) was determined from the concentrations at two, above and below points sandwiching the 50% inhibitory activity. An IC₅₀ value indicated as “>X” means that the inhibitory activity was not more than 50% when the indicated concentration X was the maximum measured concentration. N.D. means not measured.

Binder | IC50
B34 | 14.3 nM
B35 | < 100 nM
